Patent publication US20170088600A1
“And” between values parts separate entries of the source, which are not always exact repeats. Identical values can stand only once.

Experiments:
[1] = biological target: TRAIL-R2-Fc (human TRAIL-R2 aa 58-184, thrombin site, human IgG1 Fc), wild type (human) (UniProt O14763); experiment: SPR kinetic fit, 1:1 Langmuir; TRAIL-R2-Fc captured, UL141 analyte
[2] = biological target: TRAIL-R1-Fc (human TRAIL-R1 ectodomain Fc fusion) (human) (UniProt O00220); experiment: SPR, steady-state analysis (KDeq); TRAIL-R1-Fc captured, UL141 analyte
[3] = biological target: TRAIL-R1-Fc (human TRAIL-R1 ectodomain Fc fusion) (human) (UniProt O00220); experiment: SPR kinetic fit, 1:1 Langmuir; TRAIL-R1-Fc captured, UL141 analyte
[4] = biological target: TRAIL-R1-Fc (human TRAIL-R1 ectodomain Fc fusion) (human) (UniProt O00220); experiment: SPR, average of KDeq and kinetic KD (KDave)
[5] = biological target: TRAIL-R2-Fc (human TRAIL-R2 aa 58-184, thrombin site, human IgG1 Fc), wild type (human) (UniProt O14763); experiment: SPR, KDave
[6] = biological target: CD155-Fc (CD155 / poliovirus receptor Fc fusion) (UniProt P15151); experiment: SPR, KDave
[7] = biological target: TRAIL-R2-Fc (human TRAIL-R2 aa 58-184, thrombin site, human IgG1 Fc), wild type (human) (UniProt O14763); experiment: SPR, WT TRAIL-R2-Fc captured, UL141 as analyte
[8] = biological target: TRAIL-R2-Fc P150A (human) (UniProt O14763); experiment: SPR, mutant TRAIL-R2-Fc captured, UL141 as analyte
[9] = biological target: TRAIL-R2-Fc D148A (human) (UniProt O14763); experiment: SPR, mutant TRAIL-R2-Fc captured, UL141 as analyte
[10] = biological target: TRAIL-R2-Fc R154A (human) (UniProt O14763); experiment: SPR, mutant TRAIL-R2-Fc captured, UL141 as analyte
[11] = biological target: TRAIL-R2-Fc K155A (human) (UniProt O14763); experiment: SPR, mutant TRAIL-R2-Fc captured, UL141 as analyte
[12] = biological target: TRAIL-R2-Fc E78A/D109A (human) (UniProt O14763); experiment: SPR, mutant TRAIL-R2-Fc captured, UL141 as analyte
[13] = biological target: TRAIL-R2-Fc V167A (human) (UniProt O14763); experiment: SPR, mutant TRAIL-R2-Fc captured, UL141 as analyte
[14] = biological target: TRAIL-R2-Fc M152A/R154A/K155A (human) (UniProt O14763); experiment: SPR, mutant TRAIL-R2-Fc captured, UL141 as analyte
[15] = biological target: TRAIL-R2-Fc F112A (human) (UniProt O14763); experiment: SPR, mutant TRAIL-R2-Fc captured, UL141 as analyte
[16] = biological target: TRAIL-R2-Fc L110A/L114A (human) (UniProt O14763); experiment: SPR, mutant TRAIL-R2-Fc captured, UL141 as analyte
[17] = biological target: TRAIL-R2-Fc M152A (human) (UniProt O14763); experiment: SPR, mutant TRAIL-R2-Fc captured, UL141 as analyte
[18] = biological target: CD155-Fc (CD155 / poliovirus receptor Fc fusion) (UniProt P15151); experiment: SPR kinetic fit, 1:1 Langmuir; CD155-Fc captured, UL141 analyte

Sequence of TRAIL-R1-Fc (human TRAIL-R1 ectodomain Fc fusion) (human) (O00220 24-239): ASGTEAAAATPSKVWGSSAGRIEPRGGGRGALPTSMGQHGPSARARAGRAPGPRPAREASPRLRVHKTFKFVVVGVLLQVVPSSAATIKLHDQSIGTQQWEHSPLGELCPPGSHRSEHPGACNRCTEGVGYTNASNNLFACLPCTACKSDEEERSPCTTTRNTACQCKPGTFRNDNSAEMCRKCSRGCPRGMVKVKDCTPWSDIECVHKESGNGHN
Sequence of TRAIL-R2-Fc M152A/R154A/K155A (human) (O14763 other isoform, or with tags, fused parts or gaps M152A R154A K155A M152A R154A K155A limits assumed): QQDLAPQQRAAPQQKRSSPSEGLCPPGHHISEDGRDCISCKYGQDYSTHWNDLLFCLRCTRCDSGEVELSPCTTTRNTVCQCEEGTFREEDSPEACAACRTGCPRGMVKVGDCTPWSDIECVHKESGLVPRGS
Sequence of TRAIL-R2-Fc R154A (human) (O14763 other isoform, or with tags, fused parts or gaps R154A R154A limits assumed): as the sequence (O14763 other isoform, or with tags, fused parts or gaps M152A R154A K155A M152A R154A K155A limits assumed) above, with A95M, A98K counted along it
Sequence of TRAIL-R2-Fc D148A (human) (O14763 other isoform, or with tags, fused parts or gaps D148A D148A limits assumed): as the sequence (O14763 other isoform, or with tags, fused parts or gaps M152A R154A K155A M152A R154A K155A limits assumed) above, with D91A, A95M, A97R, A98K counted along it
Sequence of CD155-Fc (CD155 / poliovirus receptor Fc fusion) (P15151 21-343): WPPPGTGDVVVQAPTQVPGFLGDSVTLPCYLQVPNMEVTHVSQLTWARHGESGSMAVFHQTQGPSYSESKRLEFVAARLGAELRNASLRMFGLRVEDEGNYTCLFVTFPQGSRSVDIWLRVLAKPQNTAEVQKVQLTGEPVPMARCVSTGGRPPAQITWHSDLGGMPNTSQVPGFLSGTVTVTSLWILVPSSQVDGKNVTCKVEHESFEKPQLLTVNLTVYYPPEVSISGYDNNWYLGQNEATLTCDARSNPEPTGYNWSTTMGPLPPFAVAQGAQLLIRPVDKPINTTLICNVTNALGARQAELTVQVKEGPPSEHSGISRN
Sequence of TRAIL-R2-Fc L110A/L114A (human) (O14763 other isoform, or with tags, fused parts or gaps L110A L114A L110A L114A limits assumed): as the sequence (O14763 other isoform, or with tags, fused parts or gaps M152A R154A K155A M152A R154A K155A limits assumed) above, with L53A, L57A, A95M, A97R, A98K counted along it
Sequence of TRAIL-R2-Fc E78A/D109A (human) (O14763 other isoform, or with tags, fused parts or gaps E78A D109A E78A D109A limits assumed): as the sequence (O14763 other isoform, or with tags, fused parts or gaps M152A R154A K155A M152A R154A K155A limits assumed) above, with E21A, D52A, A95M, A97R, A98K counted along it
Sequence of TRAIL-R2-Fc F112A (human) (O14763 other isoform, or with tags, fused parts or gaps F112A F112A limits assumed): as the sequence (O14763 other isoform, or with tags, fused parts or gaps M152A R154A K155A M152A R154A K155A limits assumed) above, with F55A, A95M, A97R, A98K counted along it
Sequence of TRAIL-R2-Fc M152A (human) (O14763 other isoform, or with tags, fused parts or gaps M152A M152A limits assumed): as the sequence (O14763 other isoform, or with tags, fused parts or gaps M152A R154A K155A M152A R154A K155A limits assumed) above, with A97R, A98K counted along it
Sequence of TRAIL-R2-Fc V167A (human) (O14763 other isoform, or with tags, fused parts or gaps V167A V167A limits assumed): as the sequence (O14763 other isoform, or with tags, fused parts or gaps M152A R154A K155A M152A R154A K155A limits assumed) above, with A95M, A97R, A98K, V110A counted along it
Sequence of TRAIL-R2-Fc K155A (human) (O14763 other isoform, or with tags, fused parts or gaps K155A K155A limits assumed): as the sequence (O14763 other isoform, or with tags, fused parts or gaps M152A R154A K155A M152A R154A K155A limits assumed) above, with A95M, A97R counted along it
Sequence of UL141 ectodomain of human cytomegalovirus (HCMV FIX strain), C-terminal poly-histidine tag (ligand) (Q6RJQ3 30-279, tags left off): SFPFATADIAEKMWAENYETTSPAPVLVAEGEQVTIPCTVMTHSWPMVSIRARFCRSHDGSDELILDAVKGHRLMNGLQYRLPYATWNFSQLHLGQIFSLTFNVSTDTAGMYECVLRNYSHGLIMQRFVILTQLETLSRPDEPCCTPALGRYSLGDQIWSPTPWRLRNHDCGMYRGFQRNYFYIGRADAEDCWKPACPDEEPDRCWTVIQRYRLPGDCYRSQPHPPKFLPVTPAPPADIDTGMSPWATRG
Sequence of TRAIL-R2-Fc P150A (human) (O14763 other isoform, or with tags, fused parts or gaps P150A P150A limits assumed): as the sequence (O14763 other isoform, or with tags, fused parts or gaps M152A R154A K155A M152A R154A K155A limits assumed) above, with P93A, A95M, A97R, A98K counted along it
Sequence of TRAIL-R2-Fc (human TRAIL-R2 aa 58-184, thrombin site, human IgG1 Fc), wild type (human) (O14763 other isoform, or with tags, fused parts or gaps limits assumed): as the sequence (O14763 other isoform, or with tags, fused parts or gaps M152A R154A K155A M152A R154A K155A limits assumed) above, with A95M, A97R, A98K counted along it

Substance: UL141 ectodomain of human cytomegalovirus (HCMV FIX strain), C-terminal poly-histidine tag (ligand)
- Kd [1]: 5.96 nM
- koff [1]: 7.21e-05 s⁻¹
- kon [1]: 12100 M⁻¹ s⁻¹
- Kd [2]: 2.27 nM
- Kd [3]: 2330 nM
- koff [3]: 0.014 s⁻¹
- kon [3]: 6020 M⁻¹ s⁻¹
- Kd [4]: 2300 nM
- Kd [5]: 6 nM
- Kd [6]: 2 nM
- Kd [7]: 6 nM and 5.95 nM
- koff [7]: 7.21e-05 s⁻¹
- kon [7]: 12100 M⁻¹ s⁻¹
- Kd [8]: 8.32 nM
- koff [8]: 0.000391 s⁻¹
- kon [8]: 47000 M⁻¹ s⁻¹
- Kd [9]: 55.3 nM
- fold lower binding than wild type [9]: 10 fold
- koff [9]: 0.0013 s⁻¹
- kon [9]: 23500 M⁻¹ s⁻¹
- Kd [10]: 6.26 nM
- koff [10]: 0.000243 s⁻¹
- kon [10]: 38800 M⁻¹ s⁻¹
- Kd [11]: 7.74 nM
- koff [11]: 0.00038 s⁻¹
- kon [11]: 49100 M⁻¹ s⁻¹
- Kd [12]: 60.4 nM
- fold lower binding than wild type [12]: 10 fold
- koff [12]: 0.00151 s⁻¹
- kon [12]: 25000 M⁻¹ s⁻¹
- Kd [13]: 15.5 nM
- fold lower binding than wild type [13]: 2.5 fold
- koff [13]: 0.00048 s⁻¹
- kon [13]: 31000 M⁻¹ s⁻¹
- Kd [14]: 7.39 nM
- koff [14]: 0.00027 s⁻¹
- kon [14]: 36500 M⁻¹ s⁻¹
- Kd [15]: 630 nM
- fold lower binding than wild type [15]: 100 fold
- koff [15]: 0.00566 s⁻¹
- kon [15]: 8980 M⁻¹ s⁻¹
- Kd [16]: 42.7 nM
- fold decrease in binding affinity versus wild type [16]: 7 fold
- fold lower binding than wild type [16]: 10 fold
- koff [16]: 0.00064 s⁻¹
- kon [16]: 15000 M⁻¹ s⁻¹
- Kd [17]: 7.49 nM
- koff [17]: 0.000382 s⁻¹
- kon [17]: 51000 M⁻¹ s⁻¹
- Kd [18]: 1.97 nM
- koff [18]: 0.000346 s⁻¹
- kon [18]: 176000 M⁻¹ s⁻¹
